Here are results for 30 sequences from the nanobody polyreactivity screen of Harvey et al. (2022).

A short description of the data set: yeast display, Sf9 membrane polyspecificity reagent, FACS + sequencing; frameworks hold sequencing errors. A digest of the protocol:
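Galactose induction of a Saccharomyces cerevisiae BJ5465 synthetic nanobody display library ran 36–48 hours. The cells were then stained for 1 hour at 4 °C with 10% biotinylated, detergent-solubilized Sf9 membrane reagent, pulled down on streptavidin microbeads and FACS-sorted into low and high (top ~1%) gates on expression and reagent-binding fluorescence. Labels for polyreactivity follow the gate of origin.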
Consider “QVQLVETGGGLVQAGGSLRLSCAASGNTFQRYTMGWYRQAPGNERELVAAITWSGGNTYYADSVKGRFTISRDNAKNTVYLQMNSLKPVDTAVYYCNADYPTTAYDYWGQGTQVSVSS”, for which the “polyreactivity (PSR sort gate)” value is reported as “low polyreactivity”.

For the sequence “QVQLVETGGGLVQAGGSLRLSCAASGRIFDIYAMGWYRQAPGKERELVAAIDESGGSTYYADSVKGRFTISRDNAKNTVYLQMNSLKPEDTAVYYCATDDTWTISYGWYWFTYEYWGQGTQVTVSS”, the “polyreactivity (PSR sort gate)” value is recorded as “low polyreactivity”.

Consider “QVQLVETGGGLVQAGGSLRLSCAASGRIFHRNAMGWYRQAPGKEREFVAGITTGSSTYYADSVKGRFTISRDNAKNTVYLQMNSLKPEDTAVYYCAARYFIGSYRPRFDYWGQGTQVTVSS”, for which the “polyreactivity (PSR sort gate)” value is recorded as “high polyreactivity”. Consider “QVQLVETGGGLVQAGGSLRLSCAASGRIFKVYAMGWYRQAPGKERELDAAITSRGGSTYYADSVKGRFTISRDNAKNTVYLQMNSLKPEDTAVYYCAAARGLPSNKYYYWGQGTQVTVSS”, for which the “polyreactivity (PSR sort gate)” value is on record as “high polyreactivity”. For the sequence “QVQLVETGGGLVQAGGSLRLSCAASGRIFYYNTMGWYRQAPGKERELVAAISSTASTTYADSVKGRFTISRDNAKNTVYLQMNSLKPEDTAVYYCAADHRYHWAYPRGYYYWGQGTQVTVSS”, the “polyreactivity (PSR sort gate)” value is “high polyreactivity”. “QVQLVETGGGLVQAGGSLRLSCAASGRTFAYYVMGWYRQAPGKERELVAAISSDGSTYYADSVKGRFTISRDNAKNTVNLQMNSLKPEDTAVYYCKVDVLLVHDYVFYSWMDYWGQGTQVTVSS”: the “polyreactivity (PSR sort gate)” value is given as “high polyreactivity”.

“QVQLVETGGGLVQAGGSLRLSCAASGRTFWGHAMGWYRQAPRKERELVASISSRGSSTYYADSVKGRFTISRDNAKNTVYLQMNSLKPEDTAVYYCAARTHYFPWPWYVWDYDSWGQGTQVTVSS”: the “polyreactivity (PSR sort gate)” value is “low polyreactivity”. For the sequence “QVQLVETGGGLVQAGGSLRLSCAASGSIFVRKAMGWYRQAPGKERELVATISYRGASTYYADSVKGRFTISRDNAKNTVYLQLNCLKPEDTAVYYCNAPRFVGLNVYGYDYWGQGTQVTLSS”, the “polyreactivity (PSR sort gate)” value is “high polyreactivity”. As for “QVQLVETGGGLVQAGGSLRLSCAASGSIFVYHAMGGYRQAPGKETEFVAVISNSGSRTYYADSVKGRFTISRDNAKNTVYLQMNSLKPEDTAVYYCAARYYYFQRAYDYWGQGTQVTVSS”, the “polyreactivity (PSR sort gate)” value was “high polyreactivity”. As to “QVQLVETGGGLVQAGGSLRLSCAASGSIFYYNTMGWYRQAPGKERELVAAISRSGTSTFYADSVKGRFTISRHNAKNTVYLQMNSLKPEDTAVYYCNAESLGWYRLYTVDYWGQGTQVTVSS”, the “polyreactivity (PSR sort gate)” value is “low polyreactivity”. Under “QVQLVETGGGLVQAGGSLRLSCAASGSTFGYNGMGWYRQAPGKERELVAAISGGARTYADSVKGRFTISRDNAKNTVYLQMNSLIPEDTAVYYCAADSPVSVTADDGYWGLGTQVTVSS” stands “low polyreactivity”. For “QVQLVETGGGLVQAGGSLRLSCAASGSTFVWYDMGRYRQAPGKERELVATITSGGITTYADSVKGRFTISRDNAKNTVYLKMNSLKPEDTAVYYCNADLYYWLRYYDRNDYLGQGTQVTVSS”, the “polyreactivity (PSR sort gate)” value is “low polyreactivity”. For “QVQLVETGGGLVQAGGSLRLSCAASGSTFYDNAMGWYRQAPGKERELVAAITRSGTRTYYADSVKGRFTISRDNAKNTVYLQMNSLKPEDTAVYYCNVVLYSYVTYRIITHGTYGYWGQGTQVTVSS”, the “polyreactivity (PSR sort gate)” value is listed as “high polyreactivity”. Consider “QVQLVETGGGLVQAGGSLRLSCAASGTIFTNYTMGWYRQAPGKERELVASISWSGGRTYYADSVKGRFTISRDNAKNTVYLQMNSLKPEDTAVYYCAAVSRAPGLRYDYWGQGTQVTVSS”, for which the “polyreactivity (PSR sort gate)” value is “high polyreactivity”.

Consider “QVQLVETGGGLVQAGGSLRLSCAASGYTLPANGKGWYRQAPGKDRELVAAISFIAGSTYYADSVNGRFTISRDNAKNTVYLQMNSLKPEDTAGYYCATQFPRSTIYDYWGQGTQVTVSS”, for which the “polyreactivity (PSR sort gate)” value is given as “low polyreactivity”.

Consider “QVQLVETGGGLVQAGGSLRLSCAASVRTFHGYAMGWYRQAPGKERELVAAITCTGGRTYYADSVKGRFTISRDNAKNTVYLQMNSLKPEDTAVYYCGARPWIKSGYCGQGTQVTVSS”, for which the “polyreactivity (PSR sort gate)” value is “high polyreactivity”. On to “QVQLVETGGGLVQAGGSLRLSCASSGFTLRVNDMGWYRQAPGKERELVAGITVSGGSTYYADSVKVRFTISRDNAKNTVYLQMNSLKPEDTAVYYCNADNYENATVMDYWGQGTQVTVSS”, for which the “polyreactivity (PSR sort gate)” value is recorded as “low polyreactivity”.

Consider “QVQLVETGGGLVQAGGSLRLSCDASGRIIRWYALGWYRQAPGKERELDAAITRSGSTFYADSVKWRFTISRDNAKNTVYLQMNSLKREDTADYYCNTCRWLYDTRYQFDEFDYWGQGTQVTVSS”, for which the “polyreactivity (PSR sort gate)” value is recorded as “high polyreactivity”. As to “QVQLVETGGGLVQAGGSLRLSSAASGITSNSYAMGWYRQAPGKERELVATITSGGSTNYADSVKGRFTITLDNAKNSVYLQMNSLKPEDTAVYYCNREYWLPTQYDYWGQGTQVTVSS”, the “polyreactivity (PSR sort gate)” value is on record as “low polyreactivity”. Under “QVQLVETGGGLVQAGGSLRLSSAASGSILEGYAMGWYRQAPGKERELVPAISRSGGSTYYADSVKGRFTISRDNAKNTVYLQMKSLKPEDTAVYYCAARYRLDGTHLTGYAYYSWGQGTQGTVSS” stands “high polyreactivity”; under “QVQLVETGGGLVQAGGSLSLSCAASGRTCRFYAMGWYRQAPGKERELVGAISWNGGRTYYADSVKGRFTISRDNAKNSVYLQMNSLKPEDTAVYFCNARAYGSRKFEYWGQGTQVTVSS”, “high polyreactivity”; under “QVQLVETGGGLVQAGGSRRVSCAASGFIFWWYPMGWYRQSPGKERELVAAISGRGGSTYYADSVKRRFTISRDNAKNTVYLQMNSQKPEDTAVYYCAARLPWSYYRTQGYNYGGQGTQVTVSS”, “high polyreactivity”. “QVQLVETGGGLVQAGVSLRLSSAASGLTYTQYALGWYRQAPGKERELVAAITSGGRRYYADSVKGRFTISRDNAKNTVYLQMNSLKPEDTAVYYCAVRGWCSARGMDYWGQGTQVTVSS”: the “polyreactivity (PSR sort gate)” value is listed as “high polyreactivity”. As for “QVQLVETGGGLVQARGSLRLSCAASGRIFRRYAMGWYRQAPGKERELVAAISSGGSTDYADSVKGRFTISRDNAKNTVYLQMNSLKPEDTAVYYCARRGPYYNVGLFDSWGQGTQVTVSS”, the “polyreactivity (PSR sort gate)” value is given as “low polyreactivity”. Consider “QVQLVETGGGLVQARGSLRLSCAASVRIFYYNAMGWYRQSPGKERELVAAITRSGSTNYAESVKGRFTISRDNAKNTVYLKMNSLKPEDTAVYYCAADSLKRYDYWGQGTQVTVSS”, for which the “polyreactivity (PSR sort gate)” value is listed as “low polyreactivity”. Consider “QVQLVETGGGLVQARGSLRLSSAASGIIFYRYAMGWYRQAPGKETDFVAAISWSGGSTTYADSVKGRFTISRDNAKNTVYLQMNSLKPVDTAVYYCNAERKYWSLWGPAYDYWGQGTQVTVSS”, for which the “polyreactivity (PSR sort gate)” value is “high polyreactivity”. With “QVQLVETGGRIVQAGGSLRLSCAASGRIMDTNAMGWYRQAPGKEREFVAAITWIDGSTYYADSVKGRFTISRDNATNTVYLQMNSLKPEDTAVYYWNVQYTVDRYPSPPYSETGDYWGQGTQVTVSS”, the “polyreactivity (PSR sort gate)” value is on record as “low polyreactivity”. Consider “QVQLVETRGGLLQAGGSLRLSCDASGRTFAYYAMGRYRQAPGKESELVAAITYSDGSTYYADSVKGRFTISRDNAKNTFYLQMNSLKPEDPSVYYCAKGLSREEPENDYDYWGQGTQVTVSS”, for which the “polyreactivity (PSR sort gate)” value was “low polyreactivity”.

Regarding “QVQLVETVGGLVQAGGSLRLSCAASGIIFKRYPLGGYRQAPGKERELVAAITNRGGTYYADSVKGRFTISRDNEKNSVYLQMYSLKPEDTAVYYFAARYYWIDFKFGGPRDYWGQGTQVTVSS”, the “polyreactivity (PSR sort gate)” value is “high polyreactivity”. Under “QVQLVEYGGGLVQAGGSLRLSCAASGIIFKVYAMGWYRQAPGKEMELVAAISWSGGTTYYADSVKWRFTISRDNAKNTVYLQMNSLKPEDTAVYYCNAVVRVRFRKNDYWGQGTQVTVSS” stands “high polyreactivity”.
